Test results published in article PMC12463876, “AI-assisted design of ligands for lipocalin-2” (Frontiers in Immunology, 2025).

Molecular target: T1, Recombinant human lipocalin-2 (LCN2) (human, UniProt P80188 21-198)
T1 construct: Lipocalin-2 (LCN2), human, recombinant; neither is said to be the construct used; also called neutrophil gelatinase-associated lipocalin; siderocalin; source: produced and purified by GenScript
Assay: SPR; MinP-2 immobilised by amine coupling on a CM5 chip (Biacore 8K); LCN2 injected at 7.8, 15.6, 31.2, 62.5 and 125 nM, 30 uL/min, contact 120 s, dissociation 600 s; 25 °C; 1:1 model
Settings: both partners purified

T1 sequence (P80188 21-198): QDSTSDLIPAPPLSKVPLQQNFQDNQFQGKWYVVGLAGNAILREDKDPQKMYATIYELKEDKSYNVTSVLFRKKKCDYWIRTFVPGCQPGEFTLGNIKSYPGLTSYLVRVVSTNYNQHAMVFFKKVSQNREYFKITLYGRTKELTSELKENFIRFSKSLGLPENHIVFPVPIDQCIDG

- Kd: 4.2 nM
B1: MinP-2 (designed binder)
chain: MSKATVYDVSTGKTYEVSLEDAKKLASYAVYEGGYPLRISVAPEDTKAILDAIKNTSKEKAEEGKKLLEELN
notes: de novo miniprotein (RFdiffusion, ProteinMPNN) designed against LCN2; Cloned into pET30b with a Twin-Strep tag; also called MiniP-2; source: E. coli BL21 (DE3) pLysS, purified (Strep-Tactin XT magnetic beads, dialysis)
